Values of other authors in article PMC3089900.

Target: His276 (UniProt position 276, SEELDHALNDM)
Assay: NMR
Settings: in the presence of troponin T fragment TnT1

For “alpha-tropomyosin (striated muscle alpha-Tm) (Oryctolagus cuniculus (inferred; the article's alpha-Tm sequence discussion and preparations are rabbit))”, the pKa is given as 7.27−7.98.
